Reference: US20210340196A1 (UNIVERSIDAD DE ZARAGOZA, published 2021)

Target: T1, carcinoembryonic antigen (CEA), purified antigen (UniProt P06731 35-685)
T1 construct: Purified CEA coated on ELISA wells; also called CEA antigen
T1 sequence (looked up): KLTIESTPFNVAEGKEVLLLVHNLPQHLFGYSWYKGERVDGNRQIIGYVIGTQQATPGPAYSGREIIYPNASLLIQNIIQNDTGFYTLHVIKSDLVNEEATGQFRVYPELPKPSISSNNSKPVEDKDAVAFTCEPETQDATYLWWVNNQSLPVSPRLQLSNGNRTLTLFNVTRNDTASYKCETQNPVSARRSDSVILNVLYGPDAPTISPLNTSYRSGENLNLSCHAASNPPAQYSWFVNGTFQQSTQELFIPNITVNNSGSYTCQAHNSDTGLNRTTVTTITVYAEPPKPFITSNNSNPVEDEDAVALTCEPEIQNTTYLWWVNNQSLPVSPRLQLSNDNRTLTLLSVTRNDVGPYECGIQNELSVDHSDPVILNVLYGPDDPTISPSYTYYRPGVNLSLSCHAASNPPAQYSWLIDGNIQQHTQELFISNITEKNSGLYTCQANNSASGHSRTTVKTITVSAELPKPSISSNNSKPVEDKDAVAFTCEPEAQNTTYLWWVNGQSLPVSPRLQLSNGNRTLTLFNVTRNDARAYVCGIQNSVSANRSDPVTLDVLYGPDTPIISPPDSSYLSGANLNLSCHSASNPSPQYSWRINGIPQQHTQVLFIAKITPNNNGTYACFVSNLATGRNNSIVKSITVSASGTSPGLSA
Test: ELISA, 200 ng CEA coated per well, 500 ng scFv MFE23 as positive control, anti-His tag antibody + HRP anti-mouse IgG, OPD read at 492 nm
Experimental: FIG. 7. ELISA performed with 200 ng of CEA per well (left overnight at 4° C.), PBS (negative control), 500 ng of recombinant scFv MFE23 (positive control), and the P. pastoris supernatant transformed with pPICZαC-Chimera were then added after inducing expression with methanol. To develop the binding of scFvs to the CEA antigen, an anti-histidine tag antibody and a peroxidase-conjugated goat anti-mouse IgG secondary antibody were used. The peroxidase substrate was OPD, producing a yellow-orange product that can be detected at 492 nm.
An ELISA was performed using 200 ng of CEA per well, which was incubated overnight at 4° C., PBS (negative control), 500 ng of the recombinant scFv MFE23 (positive control), and the P. pastoris supernatant transformed with pPICZαC-Chimera after inducing expression with methanol were then added. To develop the binding of scFvs to the CEA antigen, an anti-histidine tag antibody and a peroxidase-conjugated goat anti-mouse IgG secondary antibody were used. The peroxidase substrate was OPD, producing a yellow-orange product that can be detected at 492 nm.

B1: recombinant scFv MFE23 (scFv)
scFv: QVKLQQSGAELVRSGTSVKLSCTASGFNIKDSYMHWLRQGPEQGLEWIGWIDPENGDTEYAPKFQGKATFTTDTSSNTAYLQLSSLTSEDTAVYYCNEGTPTGPYYFDYWGQGTTVTVSSGGGGSGGGGSGGGGSENVLTQSPAIMSASPGEKVTITCSASSSVSYMHWFQQKPGTSPKLWIYSTSNLASGVPARFSGSGSGTSYSLTISRMEAEDAATYYCQQRSSYPLTFGAGTKLELKR
notes: Positive control in the ELISA, 500 ng; also called anti-CEA scFv MFE23
Q: Does B1 bind?
A: binds
